According to paper PMC11602132:

Biological target: Non-structural protein 15 (Nsp15) from SARS-CoV-2 (SARS-CoV-2)
Experiment: SEC

“Non-structural protein 15 (Nsp15) from SARS-CoV-2 (enzyme)” was tested, and the stoichiometry N was 6.
